Substrate in this data set: C[C@]1(Cn2ccnn2)[C@H](C(=O)O)N2C(=O)C[C@H]2S1(=O)=O
The conditions noted are these: Enterobacter cloacae.

As usually defined, the Km is the concentration of substrate that gives half-maximal velocity.

Description: Activity of Enterobacter cloacae beta-lactamase P99 by spectrophotometry

B1: Beta-lactamase (Enterobacter cloacae), P05364 (protein)
chain: MMRKSLCCALLLGISCSALATPVSEKQLAEVVANTITPLMKAQSVPGMAVAVIYQGKPHYYTFGKADIAANKPVTPQTLFELGSISKTFTGVLGGDAIARGEISLDDAVTRYWPQLTGKQWQGIRMLDLATYTAGGLPLQVPDEVTDNASLLRFYQNWQPQWKPGTTRLYANASIGLFGALAVKPSGMPYEQAMTTRVLKPLKLDHTWINVPKAEEAHYAWGYRDGKAVRVSPGMLDAQAYGVKTNVQDMANWVMANMAPENVADASLKQGIALAQSRYWRIGSMYQGLGWEMLNWPVEANTVVEGSDSKVALAPLPVAEVNPPAPPVKASWVHKTGSTGGFGSYVAFIPEKQIGIVMLANTSYPNPARVEAAYHILEALQ
Take B1: the Km was 300 µM.

The record behind these values is ChEMBL document CHEMBL1687818, “Mechanistic studies of the inactivation of TEM-1 and P99 by NXL104, a novel non-beta-lactam beta-lactamase inhibitor” (Antimicrob Agents Chemother, 2010).
